Test results reported in patent publication US20120171195A1.

Columns and labels:
HLA-A*2402 (A24) (human) = HLA-A*2402 (A24) (human) (UniProt P04439); assay: Luminex single-antigen beads; MEM-E/02 1/600; serum Mi59 1/100
HLA-B*4801 (B48) (human) = HLA-B*4801 (B48) (human) (UniProt P01889); assay: as above
HLA-B*1511 (B75) (human) [1] = target: HLA-B*1511 (B75) (human) (UniProt P01889); assay: as above
HLA-A*2501 (A25) (human) = assay: as above
[2] = target: HLA-Cw*1802 (Cw18) (human) (UniProt P10321); assay: as above
[3] = target: HLA-Cw*1203 (Cw12) (human) (UniProt P10321); assay: as above
HLA-B*1801 (B18) (human) = assay: as above
HLA-B*1401 (B64) (human) [4] = target: HLA-B*1401 (B64) (human) (UniProt P01889); assay: as above
HLA-B*4501 (B45) (human) = assay: as above
HLA-A*3002 (A30) (human) = HLA-A*3002 (A30) (human) (UniProt P04439); assay: as above
HLA-B*4403 (B44) (human) = assay: as above
HLA-B*3901 (B39) (human) = HLA-B*3901 (B39) (human) (UniProt P01889); assay: as above
HLA-B*5301 (B53) (human) = assay: as above
HLA-B*2708 (B27) (human) = HLA-B*2708 (B27) (human) (UniProt P01889); assay: as above
HLA-B*5401 (B54) (human) [5] = target: HLA-B*5401 (B54) (human) (UniProt P01889); assay: as above
[6] = target: HLA-Cw*0801 (Cw8) (human) (UniProt P10321); assay: as above
HLA-A*2601 (A26) (human) = assay: as above
HLA-B*5001 (B50) (human) = assay: as above
HLA-A*3201 (A32) (human) [7] = assay: as above
HLA-B*0801 (B8) (human) = HLA-B*0801 (B8) (human) (UniProt P01889); assay: as above
HLA-A*2403 (A24) (human) [8] = assay: as above
HLA-A*3301 (A33) (human) = assay: as above
HLA-B*3801 (B38) (human) = assay: as above
HLA-Cw*0304 (human) = assay: as above
[9] = target: HLA-Cw*1701 (Cw17) (human); assay: as above
HLA-A*2901 (A29) (human) = HLA-A*2901 (A29) (human) (UniProt P04439); assay: as above
HLA-B*1301 (B13) (human) = assay: as above
HLA-B*1513 (B77) (human) = assay: as above
[10] = target: HLA-Cw*0401 (Cw4) (human); assay: as above
HLA-B*6701 (B67) (human) [11] = target: HLA-B*6701 (B67) (human) (UniProt P01889); assay: as above
HLA-B*1511 (B75) (human) [12] = target: HLA-B*1511 (B75) (human) (UniProt P01889); assay: Luminex single-antigen beads; MEM-E/02 1/600; serum Mi92 1/100
HLA-B*1401 (B64) (human) [13] = target: HLA-B*1401 (B64) (human) (UniProt P01889); assay: as above
HLA-B*5401 (B54) (human) [14] = target: HLA-B*5401 (B54) (human) (UniProt P01889); assay: as above
HLA-A*3201 (A32) (human) [15] = assay: as above
HLA-A*2403 (A24) (human) [16] = assay: as above
HLA-B*6701 (B67) (human) [17] = target: HLA-B*6701 (B67) (human) (UniProt P01889); assay: as above

With murine monoclonal antibody MAb MEM-E/02 the MFI (HLA-A*2402 (A24) (human)) was under 500 MFI, the MFI (HLA-B*4801 (B48) (human)) was under 500 MFI and the MFI (HLA-B*1511 (B75) (human) [1]) was under 500 MFI. It also gave an MFI (HLA-A*2501 (A25) (human)) of under 500 MFI, an MFI [2] of 1080 MFI and an MFI [3] of under 500 MFI. For the same substance, the MFI (HLA-B*1801 (B18) (human)) was under 500 MFI, the MFI (HLA-B*1401 (B64) (human) [4]) was under 500 MFI and the MFI (HLA-B*4501 (B45) (human)) was under 500 MFI. The MFI (HLA-A*3002 (A30) (human)) was under 500 MFI, the MFI (HLA-B*4403 (B44) (human)) was under 500 MFI and the MFI (HLA-B*3901 (B39) (human)) was under 500 MFI. The MFI (HLA-B*5301 (B53) (human)) was under 500 MFI, the MFI (HLA-B*2708 (B27) (human)) was under 500 MFI and the MFI (HLA-B*5401 (B54) (human) [5]) was under 500 MFI. For the same substance, the MFI [6] was under 500 MFI, the MFI (HLA-A*2601 (A26) (human)) was under 500 MFI and the MFI (HLA-B*5001 (B50) (human)) was under 500 MFI. It also gave an MFI (HLA-A*3201 (A32) (human) [7]) of under 500 MFI, an MFI (HLA-B*0801 (B8) (human)) of under 500 MFI and an MFI (HLA-A*2403 (A24) (human) [8]) of under 500 MFI. It also gave an MFI (HLA-A*3301 (A33) (human)) of under 500 MFI, an MFI (HLA-B*3801 (B38) (human)) of under 500 MFI and an MFI (HLA-Cw*0304 (human)) of 557 MFI. For the same substance, the MFI [9] was under 500 MFI, the MFI (HLA-A*2901 (A29) (human)) was under 500 MFI and the MFI (HLA-B*1301 (B13) (human)) was under 500 MFI. The MFI (HLA-B*1513 (B77) (human)) was under 500 MFI, the MFI [10] was 4590 MFI and the MFI (HLA-B*6701 (B67) (human) [11]) was under 500 MFI. For the same substance, the MFI (HLA-B*1511 (B75) (human) [12]) was 946 MFI, the % inhibition (HLA-B*1401 (B64) (human) [13]) was 7% and the MFI (HLA-B*1401 (B64) (human) [13]) was 701 MFI. It also gave an MFI (HLA-B*5401 (B54) (human) [14]) of under 500 MFI, an MFI (HLA-A*3201 (A32) (human) [15]) of under 500 MFI and an MFI (HLA-A*2403 (A24) (human) [16]) of under 500 MFI. For the same substance, the MFI (HLA-B*6701 (B67) (human) [17]) was under 500 MFI.
